# B1: Lysozyme (Human, recombinant): human lysozyme, recombinant expressed in rice (protein, UniProt P61626 19-148, looked up)
# Lysozyme C: KVFERCELARTLKRLGMDGYRGISLANWMCLAKWESGYNTRATNYNAGDRSTDYGIFQINSRYWCNDGKTPGAVNACHLSCSALLQDNIADAVACAKRVVRDPQGIRAWVAWRNRCQNRDVRQYVQGCGV
# B2: Lysozyme (Human neutrophil derived): lysozyme, human neutrophil-derived (protein, UniProt P61626 19-148, looked up)
# Lysozyme C: B1 Lysozyme C
# B3: CF-301^RHD: rhodamine-labeled PlySs2 (CF-301) (conjugate)
# chain: MTTVNEALNNVRAQVGSGVSVGNGECYALASWYERMISPDATVGLGAGVGWVSGAIGDTISAKNIGSSYNWQANGWTVSTSGPFKAGQIVTLGATPGNPYGHVVIVEAVDGDRLTILEQNYGGKRYPVRNYYSAASYRQQVVHYITPPGTVAQSAPNLAGSRSYRETGTMTVTVDALNVRRAPNTSGEIVAVYKRGESFDYDTVIIDVNGYVWVSYIGGSGKRNYVATGATKDGKRFGNAWGTFK
# B4: Sal1: anti-staphylococcal lysin, SEQ ID NO:5 (protein)
# chain: MAKTQAEINKRLDAYAKGTVDSPYRIKKATSYDPSFGVMEAGAIDADGYYHAQCQDLITDYVLWLTDNKVRTWGNAKDQIKQSYGTGFKIHENKPSTVPKKGWIAVFTSGSYQQWGHIGIVYDGGNTSTFTILEQNWNGYANKKPTKRVDNYYGLTHFIEIPVKAGTTVKKETAKKSASKTPAPKKKATLKVSKNHINYTMDKRGKKPEGMVIHNDAGRSSGQQYENSLANAGYARYANGIAHYYGSEGYVWEAIDAKNQIAWHTGDGTGANSGNFRFAGIEVCQSMSASDAQFLKNEQAVFQFTAEKFKEWGLTPNRKTVRLHMEFVPTACPHRSMVLHTGFNPVTQGRPSQAIMNKLKDYFIKQIKNYMDKGTSSSTVVKDGKTSSASTPATRPVTGSWKKNQYGTWYKPENATFVNGNQPIVTRIGSPFLNAPVGGNLPAGATIVYDEVCIQAGHIWIGYNAYNGNRVYCPVRTCQGVPPNHIPGVAWGVFK
# modifications: Staphylococcus
# B5: Lactoferrin (Human milk): lactoferrin, human milk (Sigma-Aldrich) (protein, UniProt P02788 20-710, looked up)
# Lactotransferrin: GRRRSVQWCAVSQPEATKCFQWQRNMRKVRGPPVSCIKRDSPIQCIQAIAENRADAVTLDGGFIYEAGLAPYKLRPVAAEVYGTERQPRTHYYAVAVVKKGGSFQLNELQGLKSCHTGLRRTAGWNVPIGTLRPFLNWTGPPEPIEAAVARFFSASCVPGADKGQFPNLCRLCAGTGENKCAFSSQEPYFSYSGAFKCLRDGAGDVAFIRESTVFEDLSDEAERDEYELLCPDNTRKPVDKFKDCHLARVPSHAVVARSVNGKEDAIWNLLRQAQEKFGKDKSPKFQLFGSPSGQKDLLFKDSAIGFSRVPPRIDSGLYLGSGYFTAIQNLRKSEEEVAARRARVVWCAVGEQELRKCNQWSGLSEGSVTCSSASTTEDCIALVLKGEADAMSLDGGYVYTAGKCGLVPVLAENYKSQQSSDPDPNCVDRPVEGYLAVAVVRRSDTSLTWNSVKGKKSCHTAVDRTAGWNIPMGLLFNQTGSCKFDEYFSQSCAPGSDPRSNLCALCIGDEQGENKCVPNSNERYYGYTGAFRCLAENAGDVAFVKDVTVLQNTDGNNNEAWAKDLKLADFALLCLDGKRKPVTEARSCHLAMAPNHAVVSRMDKVERLKQVLLHQQAKFGRNGSDCPDKFCLFQSETKNLLFNDNTECLARLHGKTTYEKYLGPQYVAGITNLKKCSTSPLLEACEFLRK
# B6: Serum albumin (Rat, from serum): rat serum albumin (protein, UniProt P02770 25-608, looked up)
# Albumin: EAHKSEIAHRFKDLGEQHFKGLVLIAFSQYLQKCPYEEHIKLVQEVTDFAKTCVADENAENCDKSIHTLFGDKLCAIPKLRDNYGELADCCAKQEPERNECFLQHKDDNPNLPPFQRPEAEAMCTSFQENPTSFLGHYLHEVARRHPYFYAPELLYYAEKYNEVLTQCCTESDKAACLTPKLDAVKEKALVAAVRQRMKCSSMQRFGERAFKAWAVARMSQRFPNAEFAEITKLATDVTKINKECCHGDLLECADDRAELAKYMCENQATISSKLQACCDKPVLQKSQCLAEIEHDNIPADLPSIAADFVEDKEVCKNYAEAKDVFLGTFLYEYSRRHPDYSVSLLLRLAKKYEATLEKCCAEGDPPACYGTVLAEFQPLVEEPKNLVKTNCELYEKLGEYGFQNAVLVRYTQKAPQVSTPTLVEAARNLGRVGTKCCTLPEAQRLPCVEDYLSAILNRLCVLHEKTPVSEKVTKCCSGSLVERRPCFSALTVDETYVPKEFKAETFTFHSDICTLPDKEKQIKKQTALAELVKHKPKATEDQLKTVMGDFAQFVDKCCKAADKDNCFATEGPNLVARSKEALA
# B7: ClyS: chimeric lysin active against Staphylococci, without SH3-type binding domain; SEQ ID NO:4 (protein)
# chain: METLKQAESYIKSKVNTGTDFDGLYGYQCMDLAVDYIYHVTDGKIRMWGNAKDAINNSFGGTATVYKNYPAFRPKYGDVVVWTTGNFATYGHIAIVTNPDPYGDLQYVTVLEQNWNGNGIYKTELATIRTHDYTGITHFIRPNFATESSVKKKDTKKKPKPSNRDGLNKDKIVYDRTNINYNMVLQGKSASKITVGSKAPYNLKWSKGAYFNAKIDGLGATSATRYGDNRTNYRFDVGQAVYAPGTLIYVFEIIDGWCRIYWNNHNEWIWHERLIVKEVF
# modifications: Staphlyococcus
# B8: Lactoferrin (Bovine colostrum): lactoferrin, bovine colostrum (Sigma-Aldrich) (protein, UniProt P24627 20-708, looked up)
# Lactotransferrin: APRKNVRWCTISQPEWFKCRRWQWRMKKLGAPSITCVRRAFALECIRAIAEKKADAVTLDGGMVFEAGRDPYKLRPVAAEIYGTKESPQTHYYAVAVVKKGSNFQLDQLQGRKSCHTGLGRSAGWIIPMGILRPYLSWTESLEPLQGAVAKFFSASCVPCIDRQAYPNLCQLCKGEGENQCACSSREPYFGYSGAFKCLQDGAGDVAFVKETTVFENLPEKADRDQYELLCLNNSRAPVDAFKECHLAQVPSHAVVARSVDGKEDLIWKLLSKAQEKFGKNKSRSFQLFGSPPGQRDLLFKDSALGFLRIPSKVDSALYLGSRYLTTLKNLRETAEEVKARYTRVVWCAVGPEEQKKCQQWSQQSGQNVTCATASTTDDCIVLVLKGEADALNLDGGYIYTAGKCGLVPVLAENRKSSKHSSLDCVLRPTEGYLAVAVVKKANEGLTWNSLKDKKSCHTAVDRTAGWNIPMGLIVNQTGSCAFDEFFSQSCAPGADPKSRLCALCAGDDQGLDKCVPNSKEKYYGYTGAFRCLAEDVGDVAFVKNDTVWENTNGESTADWAKNLNREDFRLLCLDGTRKPVTEAQSCHLAVAPNHAVVSRSDRAAHVKQVLLHQQALFGKNGKNCPDKFCLFKSETKNLLFNDNTECLAKLGGRPTYEEYLGTEYVTAIANLKKCSTSPLLEACAFLTR
# Tests used:
# [1] = system: staphylococci (strain not given); assay: Checkerboard analysis of PlySs2/CF-301 with AMPs, antimicrobial proteins and albumins in heat-inactivated human serum; format: cell-based, S. aureus; conditions: in combination with PlySs2/CF-301
# [2] = system: S. aureus strain ATCC 700699; assay: Confocal/deconvolution microscopy of cell surface binding; conditions: 0.25×MIC
# [3] = system: S. aureus strain MW2; assay: Fluorescence microscopy of binding after preincubation in different serum types; conditions: 0.25×MIC
# Experimental: The effect of preincubation of staphylococci with multiple different serum types and MHB on subsequent labeling with a 0.25×MIC amount of CF-301^RHD was also examined by fluorescence microscopy (FIG. 11).
# Fluorescence microscopy: Binding of PlySs2 (CF-301) to the Bacterial Cell Surface in Different Serum Environments. Mid-log phase MRSA strain MW2 was suspended at 1×10^7 CFU/mL in either CAMHB or 100% serum from either human (Sigma-Aldrich), rabbit (Gibco), rat (BioreclamationIVT), or mouse (BioreclamationIVT) sources and incubated for 30 minutes at 37° C. An additional mouse serum sample was also tested, containing 40 mg/mL HSA (Albumin Biosciences). After the preincubation, bacteria were washed with 1× phosphate-buffered saline (PBS) and resuspended in 50 μl of PBS and attached to the surface of a poly-L-lysine-coated cover glass. The cells were washed and treated with CF-301^RHOD (2 μg/mL in PBS) for 10 minutes before washing and counterstaining with DAPI. Slides were mounted in 50% glycerol and 0.1% p-phenylenediamine in PBS, pH 8. Fluorescence microscopy was performed using a Nikon Eclipse E400 microscope, equipped with a Nikon 100×/1.25 oil immersion lens, and a Retiga EXi fast 1394 camera (QImaging). QCapture Pro version 5.1.1.14 software (QImaging) was used for image capture and processing.
# [4] = system: S. aureus (strain not given); assay: MIC analysis of various lysins, chimeric lysins and antibiotics in MHB and human serum; format: cell-based; conditions: Table 14 (Example 2); for Fold decrease in MIC: human serum vs MHB
# Experimental: To further evaluate the binding domain relevance to the serum component effect, various chimerics were constructed by replacing or swapping out one binding domain for another. Chimeric lysins having the Sal1 CHAP catalytic domain with ClyS binding domain, PlySs2 (CF-301) binding domain, or lysostaphin binding domain were assayed for MIC using MHB versus human serum. the results are depicted below in TABLE 14.
# [5] = system: S. aureus (strain not given); assay: as above; format: cell-based; conditions: Table 2; for Fold decrease in MIC: human serum vs MHB
molecule,measurement,setting,value
B1,ΣFICavg,[1],≤0.05
B2,ΣFICavg,[1],≤0.056
B3,labeling of the staphylococcal cell wall,[2]; absence of the HSA pretreatment,no labeling was observed
same,labeling of the staphylococcal cell wall,[2]; cells pretreated with HSA at 40 mg/mL,extensive labeling
same,labeling of S. aureus strain MW2,[3]; mouse serum supplemented with HSA,restore high-level binding and fluorescence
same,labeling of S. aureus strain MW2,[3]; preincubation with human serum or rabbit serum,extensive labeling
same,labeling of S. aureus strain MW2,"[3]; preincubation with rat serum, mouse serum or MHB alone",poorly labeled cells
B4,"Minimal inhibitory concentration, MHB",[4],2 µg/mL
same,Fold decrease in MIC,[4],32
same,"Minimal inhibitory concentration, Human serum",[4],0.06 µg/mL
same,"Minimal inhibitory concentration, MHB",[5],2 µg/mL
same,Fold decrease in MIC,[5],32
same,"Minimal inhibitory concentration, Human serum",[5],0.06 µg/mL
B5,ΣFICavg,[1],≥1.16
B6,ΣFICavg,[1],≥1.16
B7,"Minimal inhibitory concentration, MHB",[4],8 µg/mL
same,Fold decrease in MIC,[4],2
same,"Minimal inhibitory concentration, Human serum",[4],4 µg/mL
same,"Minimal inhibitory concentration, MHB",[5],8 µg/mL
same,Fold decrease in MIC,[5],2
same,"Minimal inhibitory concentration, Human serum",[5],4 µg/mL
B8,ΣFICavg,[1],≥1.16

# From patent US20220023399A1, “BLOOD COMPONENT POTENTIATION OF LYTIC PROTEIN ANTI-BACTERIAL ACTIVITY AND METHODS AND USES THEREOF” (priority 2017, published 2022)
